Experimental findings from patent US20240132599A1 are described below.

Where a chain is given by its changes, count along the chain named. Values joined by “and” are separate entries in the source; they are usually repeats but may differ in a detail not shown here. Equal values may be shown once.

First the molecules themselves.
B1: ADT1-7-20 (antibody, IgG1, V domains shown)
VH: EVQLVESGGGLVKPGGSLRLSCAASGFTFSDYYMSWIRQAPGKGLEWVSYISSSGSTIYYADSVKGRFTISRDNAKNSLYLQMNSLRAEDTAVYYCARVDYQEAFDIWGQGTLVTVSS
VL: DIQMTQSPSSLSASVGDRVTIACRAGQSIGTYLNWYQQKPGKAPKLLIYVASSLQSGVPSRFSGSGSGTEFTLTISSLQPEDFATYYCQQSYSGLDTFGRGTKVEIK
B2: ADT1-7-61 (antibody, IgG1, V domains shown)
VH: B1 VH with V99D, Q102D, E103D
VL: B1 VL with Y92A, G94E, D96L
B3: ADT1-7-3 (antibody, IgG1, V domains shown)
VH: B1 VH with D100S, Q102A
VL: B1 VL
B4: ADT1-4 (parental) (antibody, IgG1, V domains shown)
VH: QVQLQQSGPGLVKPSQTLSLTCAISGDSVSSKSAAWNWIRQSPSRGLEWLGRTYYRSKWSTDYAASVKSRITINPDTSKNQLSLQLNSVTPEDTAVYYCARTWSGYVDVWGQGTLVTVSS
VL: ASDIQMTQSPPALSASVGDRVTITCRASQDINDWLAWYQHKPGKAPKLLIYDASSLESGVPSRFSGSGSGTEFTLTISSLQPDDFATYYCQQSYSTPQVTFGQGTRLEIK
B5: ADT1-4-31 (antibody, IgG1, V domains shown)
VH: B4 VH with Q1E, S104V, V107A
VL: DIQMTQSPPALSASVGDRVTITCRASQDINDWLAWYQHKPGKAPKLLIYDASSLESGVPLRFSGSGSGTEFTLTISSLQPDDFATYYCQQRYSTPPVTFGQGTRLEIK
B6: ADT1-4-53 (antibody, IgG1, V domains shown)
VH: B4 VH with Q1E, A34V, S104A, G105D
VL: B5 VL with R91K, P96Q, V97L
B7: ADT1-4-138 (antibody, IgG1, V domains shown)
VH: B4 VH with Q1E, S104A, G105D
VL: B5 VL with L60S, P95D, P96Q
B8: ADT1-4-2 (antibody, IgG1, V domains shown)
VH: B4 VH with Q1E, S104V, V109R
VL: B5 VL with R91K, T94A, P96Q
B9: ADT1-4-86 (antibody, IgG1, V domains shown)
VH: B4 VH with Q1E, A34V, S104L, Y106N
VL: B5 VL with R91K, T94E, P96Q
B10: ADT1-4-21 (antibody, IgG1, V domains shown)
VH: B4 VH with Q1E, A34V, S104A, G105D
VL: B5 VL with R91K, P96W
B11: ADT1-4-19 (antibody, IgG1, V domains shown)
VH: B4 VH with Q1E, S104V, V109R
VL: B5 VL with R91K, P96K
B12: ADT1-4-6 (antibody, IgG1, V domains shown)
VH: B4 VH with Q1E, S104A, V107P
VL: B5 VL with R91K, S93K, P96Q
B13: ADT1-4-112 (antibody, IgG1, V domains shown)
VH: B4 VH with Q1E, S104V, V109Y
VL: B5 VL with R91K, T94Q, P96Q
B14: ADT1-4-143 (antibody, IgG1, V domains shown)
VH: B4 VH with Q1E, Q5L, S104V, V107A
VL: B5 VL with P95H, P96Q, E106V
B15: ADT1-4-1 (antibody, IgG1, V domains shown)
VH: B4 VH with Q1E, S104V, V107A
VL: B5 VL with P96I
B16: ADT1-4-6/ADT3-2 (bispecific antibody)
heavy: EVQLQQSGPGLVKPSQTLSLTCAISGDSVSSKSAAWNWIRQSPSRGLEWLGRTYYRSKWSTDYAASVKSRITINPDTSKNQLSLQLNSVTPEDTAVYYCARTWAGYPDVWGQGTLVTVSSASTKGPSVFPLAPSSKSTSGGTAALGCLVKDYFPEPVTVSWNSGALTSGVHTFPAVLQSSGLYSLSSVVTVPSSSLGTQTYICNVNHKPSNTKVDKKVEPKSCDKTHTCPPCPAPELAGAPSVFLFPPKPKDTLMISRTPEVTCVVVDVSHEDPEVKFNWYVDGVEVHNAKTKPREEQYNSTYRVVSVLTVLHQDWLNGKEYKCKVSNKALPAPIEKTISKAKGQPREPQVYTLPPSRDELEEGPVSLTCLVKGFYPSDIAVEWESTYGPENNYKTTPPVLDSDGSFFLYSKLTVSYWRWYKGNVFSCSVMHEALHNHYTQKSLSLSPG
VL: B5 VL with R91K, S93K, P96Q
B17: ADT1-4-138/ADT3-2 (bispecific antibody)
heavy: B16 heavy with G105D, P107V
VL: B5 VL with L60S, P95D, P96Q

The first assay deals with Vδ1 TCR on human Vδ1-positive γδ T cells (human), A0A1B0. As to the kind of experiment: cell-based or functional assay.
Vδ1 TCR on human Vδ1-positive γδ T cells (human), A0A1B0, sequence (A0A1B0 entry or part of it mutant limits assumed): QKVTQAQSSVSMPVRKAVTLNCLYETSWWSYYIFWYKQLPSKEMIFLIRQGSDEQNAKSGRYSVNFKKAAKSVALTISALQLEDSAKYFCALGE
For the molecule B1, the IC50 TCR DR (no THP-1) is 0.16 nM and 0.164 nM; the IC90 TCR DR (noTHP-1) was 1 nM and 1.04 nM.
Take B2: the IC50 TCR DR (no THP-1) was 6.3 nM and 6.26 nM; the IC90 TCR DR (noTHP-1) was 1700 nM.
Turning to B3, the IC50 TCR DR (no THP-1) was 0.16 nM and 0.161 nM; the IC90 TCR DR (noTHP-1) was determined as 0.79 nM.
B4: the IC50 TCR downregulation (soluble assay, added in solution) worked out at 38.3 nM.
As for B5, the IC50 TCR DR (no THP-1) is 0.24 nM and 0.245 nM; the IC90 TCR DR (noTHP-1) was 1.1 nM and 1.09 nM.
Regarding B6, the IC50 TCR DR (no THP-1) is 0.25 nM and 0.254 nM; the IC90 TCR DR (noTHP-1) was 0.7 nM and 0.698 nM.
In the case of B7, the IC50 TCR DR (no THP-1) was 8.4 nM and 8.38 nM; the IC90 TCR DR (noTHP-1) was 38 nM and 38.3 nM.
In the case of B8, the IC50 TCR DR (no THP-1) was 0.31 nM; the IC90 TCR DR (noTHP-1) is 0.83 nM and 0.834 nM.
For the molecule B9, the IC50 TCR DR (no THP-1) was 0.31 nM and 0.307 nM; the IC90 TCR DR (noTHP-1) is 1 nM.
With B10, the IC50 TCR DR (no THP-1) is 0.27 nM and 0.266 nM; the IC90 TCR DR (noTHP-1) is 0.89 nM and 0.892 nM.
B11: the IC50 TCR DR (no THP-1) is 0.37 nM and 0.367 nM; the IC90 TCR DR (noTHP-1) is 1.6 nM and 1.58 nM.
On to B12, for which the IC50 TCR DR (no THP-1) was determined as 0.48 nM; the IC90 TCR DR (noTHP-1) is 1.9 nM and 1.91 nM.
On to B13, for which the IC50 TCR DR (no THP-1) was 0.3 nM and 0.295 nM; the IC90 TCR DR (noTHP-1) is 1.1 nM and 1.09 nM.
In the case of B14, the IC50 TCR DR (no THP-1) is 0.31 nM and 0.313 nM; the IC90 TCR DR (noTHP-1) was 0.85 nM and 0.853 nM.
For B15, the IC50 TCR DR (no THP-1) worked out at 0.36 nM and the IC90 TCR DR (noTHP-1) is 0.67 nM.

Another assay has the same target.
Test: not given
Molecule B16 returned a Vδ1 TCR down-regulation (A375 co-culture): % change (at saturation) of 81.9%, a Vδ1 TCR down-regulation (A375 co-culture): EC50 of 0.00606 nM and a Vδ1 TCR down-regulation (A375 co-culture): EC95 of 0.0836 nM.
With B17, the Vδ1 TCR down-regulation (A375 co-culture): % change (at saturation) came to 75.3%, the Vδ1 TCR down-regulation (A375 co-culture): EC50 was 0.00798 nM and the Vδ1 TCR down-regulation (A375 co-culture): EC95 turned out to be 0.496 nM.
